Experimental data reported in US7214663B2, “Tripeptide prodrug compounds” (Medarex, Inc., priority 2001, dated 2007).
Read-outs that look alike come from different tables or passages of the source.

Experiments:
[1] = tested on: HT-29 (colon carcinoma) cells; conditions: HT29, 48 hours, 3H-thymidine incorporation
Procedure: (§1) Adherent cells, LNCaP (prostate carcinoma), HT-29 (colon carcinoma) and PC-3 (prostate carcinoma), were cultured in DMEM media containing 10% heat inactivated fetal calf serum (FCS). On the day of the study the cells were detached from the plate with a trypsin solution. The collected cells were washed and resuspended at a concentration of 0.25×10^6 cells/ml in DMEM containing 10% FCS. 100 μl of cell suspension were added to 96 well plates and the plates were incubated for 3 hours to allow the cells to adhere. […] The plates were then incubated for 24 hours, pulsed with 10 μl of a 100 μCi/ml ^3H-thymidine and incubated for an additional 24 hours (total incubation time 48 hours). The plates were harvested using a 96 well Harvester (Packard Instruments) and counted on a Packard Top Count Counter. Four parameter logistic curves were fitted to the ^3H-thymidine incorporation as a function of drug molarity using Prism software to determine IC50 values.
(§2) Prostate carcinoma cells, LNCaP and PC-3 cells or colon carcinoma cells HT-29, were incubated with increasing concentration of the indicated compounds for 48 hours and cellular proliferation was measured using the ^3H-thymidine assay.

[2] = tested on: LNCaP (prostate carcinoma) cells; conditions: 48 hours, 3H-thymidine incorporation
Procedure: as §1, §2

[3] = tested on: PC-3 (prostate carcinoma) cells; conditions: PC-3, 48 hours, 3H-thymidine incorporation
Procedure: as §1, §2

[4] = Repeat-dose tolerability / repeat dose MTD in tumor bearing mice; assay type: in vivo, mouse; conditions: mouse, in vivo, intravenous, five doses, based on efficacy study in Example 12
From the text: (§3) In one study, one animal in each dose group (n=8) was terminated as a possible drug-related toxicity death late in the study, at Days 58 and 57 in the low and high dose-groups respectively. The safety of the compound was evidenced by little body weight loss in either the high or low dose groups (less than 5% of the initial weight) during the 60-day observation period, in surviving animals (FIG. 14). In the other study, both the high and low dose were well tolerated. Only one animal in the high dose group (n=10) had over 15% of body weight loss at the end of the study (Day 61).
(§4) In repeat-dose studies in tumor bearing mice, groups of ten mice were dosed with various amounts of prodrug for a total of five doses at either five day or 1 week intervals. […] Thus, the prodrugs permit a much greater amount of therapeutic agent to be delivered to the body as a whole and thus to the vicinity of the target cell.

tumor-bearing nude mice = assay: as above; assay type: in vivo, mouse
From the text: as §3, §4

[5] = Metabolism and clearance of Suc-Leu-Ala-Leu-Dox in mice (plasma, urine); assay type: in vivo, mouse; conditions: after single intravenous 117 mg/kg Suc-Leu-Ala-Leu-Dox
Procedure: Plasma samples of 100 μl were transferred to microcentrifuge tubes (1.5 mL) and an internal standard of daunorubicin (20 μL at 0.5 mg/ml) was added together with acetonitrile (400 μl). The tubes were capped and briefly vortexed followed by centrifugation at 14,000 rpm. 420 μl from each tube was removed and dried in vacuo. Each sample was reconstituted in 65 μl 20 mM aqueous ammonium formate (AF) pH 4.5 buffer containing acetonitrile (20%) prior to analysis by reverse phase liquid chromatography in combination with tandem mass spectrometry (LC MS/MS).
Urine was collected at 2 and 24 hours post administration from pairs of mice in metabolic cages. Urine samples were diluted with AF buffer containing acetonitrile (20%) to give a target analyte concentration within the practical range of the LC MS/MS assay. 30 μl of each diluted sample was placed in a micro centrifuge tube (1.5 ml) and an internal standard of daunorubicin (20 μL at 0.5 mg/ml) was added together with 50 μl of AF buffer containing acetonitrile (20%). Each sample was then analyzed by LC MS/MS.
An Agilent HP1100 HPLC with DAD detector and Chemstation software was coupled to a PE Sciex API 365 mass spectrometer with an electrospray ion source. HPLC was performed on a TSK-Gel Super ODS, […], 4.6×50 mm (TosoHaas) reversed phase column equipped with a […] C18 guard disc (Higgins Analytical) and stainless steel frit (Upchurch Scientific). Chromatography was performed at room temperature. The flow rate was 0.5 ml/min. Injection volume was 50 μl. Gradient elution was performed using a mobile phase of AF buffer with increasing amounts of acetonitrile. The API 365 was operated at 365° C. in a multiple reaction monitoring mode, set to monitor specific analyte parent-daughter ion pairs. Integration of chromatograms was performed by MacQuan software (PE Sciex) and quantitation of each analyte obtained by comparison to previously obtained calibration curves. Daunorubicin was used as an internal standard in all cases.

BALL-1 cells (CD10neg) = assay type: cell-based, human
Procedure: (§5) In addition to LNCaP, a number of B-cell lines, such as Ramos and Namalwa cells express CD10 (CD10^pos cells).
(§6) Suspension cells, BALL-1, Ramos and Namalwa cells were cultured in RPMI media containing 10% heat inactivated fetal calf serum (FCS). On the day of the study, the cells were collected, washed and resuspended at a concentration of 0.5×10^6 cells/ml in RPMI containing 10% FCS. 100 μl of cell suspension was added to 96 well plates. […] Finally 10 μl of a 100 μCi/ml ^3H-thymidine was added per well and the plates were incubated for 24 hours. The plates were harvested using a 96 well Harvester (Packard Instruments) and counted on a Packard Top Count counter. Four parameter logistic curves were fitted to the ^3H-thymidine incorporation as a function of drug molarity using Prism software to determine IC50 values.

Ramos cells (CD10pos) = assay type: cell-based, human; conditions: 24 hours, 3H-thymidine
Procedure: as §5, §6

[6] = mouse, in vivo, intravenous
[7] = tested on: healthy young female normal mice
in vivo = conditions: female, ICR, mouse, iv, 100 umol/kg
Procedure: Plasma was obtained from three individual animals in each group at 5 minutes, 1, 2, 4, or 6 hr.

[8] = tested on: human colon carcinoma (LS174T); assay: LS174T xenograft efficacy study
Procedure: Healthy young female nude mice were subcutaneously implanted with chunks of LS174T. […] Tumor size and body weights were measured twice weekly for up to 60 days.

[9] = first experiment, as first stated
[10] = recalculation (about 47% active compound)

Compound: COc1cccc2c1C(=O)c1c(O)c3c(c(O)c1C2=O)C[C@@](O)(C(=O)CO)C[C@@H]3O[C@H]1C[C@H](NC(=O)[C@H](CC(C)C)NC(=O)[C@H](C)NC(=O)[C@H](CC(C)C)NC(=O)CCC(=O)O)[C@H](O)[C@H](C)O1 [Suc-Leu-Ala-Leu-Dox]
- IC50 [1]: 36 µM
- IC50 [2]: ~1 µM
- IC50 [3]: 50 µM
- MTD at 60 day [4]: ~52 mg/kg
- acute signs of toxicity following repeat administration (tumor-bearing nude mice; 52 or 63 mg/kg every 5 days for five doses): no acute signs of toxicity
- body weight loss, % of the initial weight (tumor-bearing nude mice; 52 or 63 mg/kg intravenously every 5 days for five doses, 60-day observation): less than 5%
- Optimal Efficacy Repeat Dose (mg/kg), value in parentheses (doxorubicin equivalent dose) (tumor-bearing nude mice; Table 11, five doses at five day or 1 week intervals): 38 mg/kg
- Optimal Efficacy Repeat Dose (tumor-bearing nude mice; Table 11, five doses at five day or 1 week intervals, tumor bearing mice, 60 days): 63 mg/kg
- Plasma 1 hr, percent of administered dose [5]: 1.49%
- Urine 2 hr, percent of administered dose [5]: 9.31%
- Urine 24 hr, percent of administered dose [5]: 2.11%
- dose excreted at 2 h ([5]; female, mouse, in vivo, read-out: Urine 2 hr, percent of administered dose): 9.31%
- fold difference between CD10pos and CD10neg cells (BALL-1 cells (CD10neg)): 30-35 fold
- IC50 (BALL-1 cells (CD10neg); Ball-1 (CD10neg), 24 hours, 3H-thymidine): 78.7 µM
- Ratio Ball-1:Namalwa (BALL-1 cells (CD10neg); ratio of IC50): 35
- Ratio Ball-1:Ramos (BALL-1 cells (CD10neg); ratio of IC50): 30
- IC50 (Ramos cells (CD10pos)): 2.63 µM
- MTD at 28 day [6]: ~59 mg/kg
- equivalent dose of doxorubicin safely administered [7, 9]: 66 mg/kg
- fold higher than possible with doxorubicin alone [7, 9]: approximately 8 fold
- mortalities over the 28-day study ([7]; intravenous 23-117 mg/kg): no mortalities
- single-dose MTD ([7]; intravenous, mice, 28-day study, first experiment, doses as first stated): greater than 117 mg/kg
- equivalent dose of doxorubicin safely administered [7, 10]: 70 mg/kg
- fold higher than possible with doxorubicin alone [7, 10]: approximately 3.3 fold
- single dose MTD, fold higher than doxorubicin alone ([7]; repeated experiment): at least 1.2 fold
- AUC (in vivo): 634 µM·h
- Mean Day of Survival ([8]; 52 mg/kg every 5 days for 5 doses): 20 days
- Mean Day of Survival ([8]; 63 mg/kg every 5 days for 5 doses): 32 days
- anti-tumor activity in LS174T xenograft ([8]; doxorubicin-insensitive model): decreased the rate of tumor growth considerably
